Five molecules from PMC7672459, “Detection of genomic G-quadruplexes in living cells using a small artificial protein” can be followed below.

Data set [1] deals with T1, G4P (artificial (RHAU-derived), UniProt Q9H2U1 53-75).
T1 chain: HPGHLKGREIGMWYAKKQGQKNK
Description: EMSA; K+; only 20% of DNA bound at saturation; low-nM Kd, number only in figure; EMSA: 20 mM Tris-HCl pH 7.4, 75 mM KCl, 1 mM EDTA, 0.4 mg/ml BSA, 10 nM DNA, 4 C (or 37 C), 1 h; dsDNA with 30% PEG 200; pull-down: 20 mM Tris-HCl pH 7.4, 150 mM KCl, 1 mM EDTA, 0.5% Triton X-100, 4 C. As to conditions: protein: recombinant, tags: N-terminal HIS, C-terminal GTGSGA-3xFLAG, label: 5' FAM. (A gel shift assay detects complexes by their altered migration in electrophoresis.)

The target of data set [2] is T1, G4P. Description: competition; competitor of FAM c-KIT/KRAS G4; EMSA: 20 mM Tris-HCl pH 7.4, 75 mM KCl, 1 mM EDTA, 0.4 mg/ml BSA, 10 nM DNA, 4 C (or 37 C), 1 h; dsDNA with 30% PEG 200; pull-down: 20 mM Tris-HCl pH 7.4, 150 mM KCl, 1 mM EDTA, 0.5% Triton X-100, 4 C. As to conditions: protein: recombinant; tags: N-terminal HIS; C-terminal GTGSGA-3xFLAG; label: 5' FAM; parallel G4.

Data set [3] concerns the target T1, G4P. Description: EMSA; K+; two distinct Kd values, numbers only in figure; EMSA: 20 mM Tris-HCl pH 7.4, 75 mM KCl, 1 mM EDTA, 0.4 mg/ml BSA, 10 nM DNA, 4 C (or 37 C), 1 h; dsDNA with 30% PEG 200; pull-down: 20 mM Tris-HCl pH 7.4, 150 mM KCl, 1 mM EDTA, 0.5% Triton X-100, 4 C. The following applies: protein: recombinant; tags: N-terminal HIS; C-terminal GTGSGA-3xFLAG; label: 5' FAM; parallel broken-strand G4.

GGGGCCGGGGCCGGGGCCGGGGCC (structured_DNA) [C9orf72]: in the data set with G4P [1] (antiparallel G4, hairpin in equilibrium), the binding result is recorded as “binds”.

In the case of AGGGCGGTGTGGGAAGAGGGAAGAGGGGGAGG (structured_DNA) [KRAS], the binding result in the data set with G4P [2] was “binds”.

As to AAGGGAGGGCGGCGGGGCAGGGA (structured_DNA) [PDGFR-beta], in the data set with G4P [3], the binding result was “binds”.

In the case of GGTTAGGGTTAGGGTTAGGGTTAGGGTTAG (structured_DNA) [Tel], the binding result with G4P [1] (mixed parallel/antiparallel G4) is listed as “binds”.

As to TTCGGGCGGGCGCGAGGGAGGGTTTT (structured_DNA) [c-KIT], the binding result in the data set with G4P [2] was “binds”.
